The target in data set [1] is T1, peptide from the processing site of presenilin 1 SVNM/AEGD.
T1 chain: SVNMAEGD

Data set [2] addresses T2, synthetic peptide from the APP beta-secretase site with the Swedish mutation SEVNL/DAEFR.
T2 chain: SEVNLDAEFR

Data set [3] deals with T3, synthetic peptide PS1-gamma LVNMAEGD
T3 chain: LVNMAEGD

Data set [4] has as its target oxidized bovine insulin B chain, P01317.
Data set [5] concerns the target T4, synthetic peptide from the APP beta-secretase site SEVKM/DAEFR.
T4 chain: SEVKMDAEFR

Data set [6] has as its target recombinant pro-memapsin 2 (pro-M2pd).
The target in data set [7] is T5, synthetic peptide NCH-gamma VGSGVLLSRK
T5 chain: VGSGVLLSRK

Chain of oxidized bovine insulin B chain, P01317 (P01317 25-54): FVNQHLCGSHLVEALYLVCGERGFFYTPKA
Chain of recombinant pro-memapsin 2 (pro-M2pd) (chain, as listed by the source): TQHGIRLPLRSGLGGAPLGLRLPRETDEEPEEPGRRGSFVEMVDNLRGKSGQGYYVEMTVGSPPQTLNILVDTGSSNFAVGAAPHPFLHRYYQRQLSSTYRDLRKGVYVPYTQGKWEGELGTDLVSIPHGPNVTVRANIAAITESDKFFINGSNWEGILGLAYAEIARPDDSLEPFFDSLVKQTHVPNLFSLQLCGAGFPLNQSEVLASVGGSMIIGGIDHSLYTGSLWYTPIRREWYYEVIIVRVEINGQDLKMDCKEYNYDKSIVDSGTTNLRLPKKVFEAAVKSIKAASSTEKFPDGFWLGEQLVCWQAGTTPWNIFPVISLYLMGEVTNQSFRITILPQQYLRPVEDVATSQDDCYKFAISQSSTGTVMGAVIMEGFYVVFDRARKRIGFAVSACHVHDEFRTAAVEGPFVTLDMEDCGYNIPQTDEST

B1: recombinant memapsin 2 (M2pd), auto-activated from pro-M2pd at pH 4.0 (protein)
chain: GIRLPLRSGLGGAPLGLRLPRETDEEPEEPGRRGSFVEMVDNLRGKSGQGYYVEMTVGSPPQTLNILVDTGSSNFAVGAAPHPFLHRYYQRQLSSTYRDLRKGVYVPYTQGKWEGELGTDLVSIPHGPNVTVRANIAAITESDKFFINGSNWEGILGLAYAEIARPDDSLEPFFDSLVKQTHVPNLFSLQLCGAGFPLNQSEVLASVGGSMIIGGIDHSLYTGSLWYTPIRREWYYEVIIVRVEINGQDLKMDCKEYNYDKSIVDSGTTNLRLPKKVFEAAVKSIKAASSTEKFPDGFWLGEQLVCWQAGTTPWNIFPVISLYLMGEVTNQSFRITILPQQYLRPVEDVATSQDDCYKFAISQSSTGTVMGAVIMEGFYVVFDRARKRIGFAVSA
As to B1, the Km result in data set [1] is given as “Km, 15.2 mM”; in data set [2], “Km, 1 mM”. Also, the kcat result is recorded as “kcat, 0.67 s^-1” in data set [1] and “tcat, 2.45 s^-1” in data set [2]. The kcat/Km result in data set [1] was “kcat/Km, 43.8 s^-1M^-1”; in data set [2] it was “kcat/Km, 2450 s^-1M^-1”; in data set [5], “kcat/Km, 39.9 s^-1M^-1”. Further, the “fold increase of kcat/Km over native APP” value in data set [2] was 60-fold increase of kcat/Km over that for native APP. Further, the results for the “hydrolytic sites (HPLC and mass spectrometry)” value in data set [3], in data set [4] and in data set [7] were “A single cleavage site was observed in synthetic peptide PS1-gamma”, “Two hydrolytic sites were identified on oxidized insulin B-chain” and “Three hydrolytic sites were identified from peptide NCH-gamma”, respectively. Besides, the self-cleavage sites entry in data set [6] is “M^2pd cleaved its pro peptide (2 sites) and the protease portion (2 sites) during a 16 h incubation after activation”. The hydrolysis result with Native proteins was “Native proteins were not cleaved by M2pd”.

Source of the values: US20020049303.
